Source: FireProtDB (doi:10.1002/pro.5560070624)

B1: Ferrienterobactin receptor, P05825 (parent)
chain: MNKKIHSLALLVNLGIYGVAQAQEPTDTPVSHDDTIVVTAAEQNLQAPGVSTITADEIRKNPVARDVSKIIRTMPGVNLTGNSTSGQRGNNRQIDIRGMGPENTLILIDGKPVSSRNSVRQGWRGERDTRGDTSWVPPEMIERIEVLRGPAAARYGNGAAGGVVNIITKKGSGEWHGSWDAYFNAPEHKEEGATKRTNFSLTGPLGDEFSFRLYGNLDKTQADAWDINQGHQSARAGTYATTLPAGREGVINKDINGVVRWDFAPLQSLELEAGYSRQGNLYAGDTQNTNSDSYTRSKYGDETNRLYRQNYALTWNGGWDNGVTTSNWVQYEHTRNSRIPEGLAGGTEGKFNEKATQDFVDIDLDDVMLHSEVNLPIDFLVNQTLTLGTEWNQQRMKDLSSNTQALTGTNTGGAIDGVSTTDRSPYSKAEIFSLFAENNMELTDSTIVTPGLRFDHHSIVGNNWSPALNISQGLGDDFTLKMGIARAYKAPSLYQTNPNYILYSKGQGCYASAGGCYLQGNDDLKAETSINKEIGLEFKRDGWLAGVTWFRNDYRNKIEAGYVAVGQNAVGTDLYQWDNVPKAVVEGLEGSLNVPVSETVMWTNNITYMLKSENKTTGDRLSIIPEYTLNSTLSWQAREDLSMQTTFTWYGKQQPKKYNYKGQPAVGPETKEISPYSIVGLSATWDVTKNVSLTGGVDNLFDKRLWRAGNAQTTGDLAGANYIAGAGAYTYNEPGRTWYMSVNTHF

Variants of: B1
Conditions: Escherichia coli (strain K12); pH 7; 25 °C; GdnHCl; ESR; MOPS 20 mM; structure 1FEP; whole UniProt chain shown

Variant	denaturant m value [kcal/mol/M]	denaturant midpoint (higher = more stable) [M]
L266C	3.25	2.28
S268C	4.21	1.77
E270C	4.08	1.65
E272C	5.76	1.57
G274C	5.28	1.5
S276C	4.61	1.29
Q278C	1.31	1.91
